{"source": "paper PMC9910501", "molecular_target": "OsASI1-BAH (residues 19 to 183) (rice)", "test": "ITC"}
{"substance": "OsSUVH6 N-terminal peptide (OsSUVH6N, residues 287 to 304)", "values": [{"measurement": "Kd", "value": 184, "unit": "nM"}]}
